Experiments:
[1] = molecular target: biotinylated His-Avi-TEAD (194-411) (UniProt P28347); test: SPR, steady-state response against peptide concentration (M, log axis) with fitted curve
[2] = molecular target: biotinylated His-Avi-TEAD (194-411) (UniProt P28347); test: SPR (Biacore T100, 25 C), captured biotinylated TEAD, peptide as analyte, steady-state
[3] = molecular target: biotinylated His-Avi-TEAD (194-411) (UniProt P28347); test: SPR (Biacore T100, 25 C), captured biotinylated TEAD, peptide as analyte, single cycle kinetics
[4] = molecular target: biotinylated His-Avi-TEAD (194-411) (UniProt P28347); test: SPR, single cycle kinetics, biotinylated TEAD captured on the chip, peptide injected at 0.044, 0.133, 0.4, 1.2, 3.6 nM
[5] = molecular target: biotinylated His-Avi-TEAD (194-411) (UniProt P28347); test: SSM screen, enrichment after two rounds of sorting
[6] = molecular target: biotinylated His-Avi-TEAD (194-411) (UniProt P28347); test: SPR (Biacore T100, 25 C), captured biotinylated TEAD, peptide as analyte, kinetics 1:1 binding

| Binder | EC50 (read off the curve) [1] [nM] | Kd [2] [nM] | enrichment score [5] | further results |
| --- | --- | --- | --- | --- |
| GSPDEYIERARRCCRRGDIQCCLRYFEESGDPNVMLICLFCP (designed binder) [peptide of SEQ ID NO: 8] | 40 | 39 |  |  |
| GSPDEYIERAKECCKKQDIQCCLRIFDESGDPNVMLICLFCW (designed binder) [peptide of SEQ ID NO: 10] |  |  |  | Kd [3]: 0.372 nM; koff [3]: 0.00767 s⁻¹; kon [3]: 2.06e+07 M⁻¹ s⁻¹; Kd [4]: 0.372 nM |
| GSPDKYIERAKECCKKGDIQCCLRYFEESGDPNVMLICLFCP (designed binder) [E03K variant of SEQ ID NO: 1] |  |  | -0.5 |  |
| GSPDEYIERAKECCKKQDIQCCLRIFDESKDPNVMLICLFCP (designed binder) [peptide of SEQ ID NO: 11] | 6 | 6.3 |  | koff [6]: 0.117 s⁻¹; kon [6]: 3.1e+07 M⁻¹ s⁻¹ |
| GSPDEKIERAKECCKKGDIQCCLRYFEESGDPNVMLICLFCP (designed binder) [Y04K variant of SEQ ID NO: 1] |  |  | -1.58 |  |
